# In US9809627B2, “Cyclized transthyretin peptide and methods of use therefor” (Wisconsin Alumni Research Foundation, priority 2014, dated 2017):
# Entries after “also recorded” stand apart in the source; their conditions may differ. Where no end group is shown, it is not given here. [ ]: non-standard residue; d: D form.
# Legend:
# Aβ (1-40) [1] = biological target: T1, Aβ (1-40) (Homo sapiens, UniProt P05067); assay: Filtration/sedimentation assay of Aβ aggregation; type: biochemical
# T1 construct: Aβ (1-40) was purchased from Anaspec, Inc. (Fremont, Calif.) as lyophilized powder; purchased Anaspec, Inc. (Fremont, Calif.)
# Experimental: (§1) Aβ (1-40) was purchased from Anaspec, Inc. (Fremont, Calif.) as lyophilized powder. For dynamic light scattering, ThT fluorescence assay, TEM, NTA measurement and filtration/sedimentation assay, Aβ was dissolved in 50% ACN, re-lyophilized, and reconstituted in 8M urea at 12 mg/mL. Aβ stock was then aliquoted, snap-frozen in ethanol with dry ice, and stored at −80° C. For PICUP and proteolytic fragmentation analysis, lyophilized Aβ was dissolved in prechilled hexafluoroisopropanol (HFIP, Acros Organics, Geel, Belgium), aliquoted, dried and stored at −20° C. as previously described (Cho et al., 2014). Aβ sample was prepared right before use by dissolving dried peptides in 50 mM NaOH and diluting into phosphate-buffered saline (PBSA) (10 mM Na2HPO4/NaH2PO4, 150 mM NaCL and 0.02% NaN3 (pH 7.4)) to 30 μM as previously described (Cho et al., 2014).
# Aβ alone (30 μM) or with CG3 (3 μM) was prepared in PBSA and incubated for 24 hr at 37° C. For filtration, 175 μL of sample was filtered through 0.45 μm filter. For sedimentation, 100 μL of sample was transferred onto a separate tube and centrifuged for 30 min at 19,500 ref. The supernatant (80%) was removed. Concentrations of untreated, filtered, and centrifuged samples were measured by BCA assay (Pierce).
# [2] = test system: primary cortical neuronal cells; assay: In vitro cellular toxicity of Aβ (1-42), MTS assay; type: cell-based, mice; conditions: 10 μM peptide, 10 μM Aβ
# Experimental: Aβ toxicity was assessed as described in detail previously (Yang et al., 2013; Cho et al., 2014). Briefly, the primary cortical neuronal cells were cultured from embryonic 15.5 day mice and were maintained in neurobasal media till they are matured. Aβ (1-42) (American Peptide, Sunnyvale, Calif.) at 1 mg/mL in PBS was diluted to 10 μM without or with peptides as previously described (Cho et al., 2014). At 6 days in vitro (DIV), the cells were treated with either Aβ alone or Aβ incubated with different doses of mTTR and peptides. Appropriate vehicle and controls were run along with the treatments. At 8 DIV, the neurons were incubated with MTS reagent (Promega) as per manufacturer protocol for 2-3 hrs and absorbance was measured at 490 nm.
# Aβ (1-40) [3] = biological target: T1, Aβ (1-40); assay: Thioflavin T (ThT) fluorescence assay of Aβ aggregation; type: biochemical; conditions: 28 μM Aβ, 2.8 μM peptide
# Experimental: as §1
# ThT stock solutions were prepared in PBSA and filtered through 0.22 μm filter. The concentration of ThT was measured using an extinction coefficient of 26,620 M^−1 cm^−1 at 416 nm and the stock solution was diluted to 10 μM in PBSA prior to the measurement. Aβ alone (28 μM) and with peptides (2.8 μM) or mTTR (2.8 μM) were prepared in PBSA and incubated for 48 hr at 37° C. After 1, 5, 24 and 48 hr of incubation, 10 μL of each sample was mixed with 130 μL of 10 μM ThT and analyzed. ThT fluorescence emission was measured using a QuantaMaster spectrofluometer (PTI, Birmingham, N.J.), with excitation at 440 nm and emission spectra recorded from 460 to 500 nm. Three serial spectra were averaged for each sample and the background signal of ThT in PBSA was subtracted from the averaged data. Fluorescence intensity at a wavelength of 480 nm was compared.
# Aβ (1-40) [4] = biological target: T1, Aβ (1-40); assay: Nanoparticle tracking (NTA) of Aβ aggregates; type: biochemical; conditions: 28 μM Aβ, 10:1 Aβ:peptide molar ratio
# Experimental: as §1
# NTA measurements were taken with a Nanosight LM10 (Nanosight, Amesbury, U.K.) equipped with a 405 nm laser as previously described (Yang et al., 2013). Aβ alone (28 μM) or with CG3 (2.8 μM) were prepared in PBSA and incubated for 5 hr at 37° C. Three 60 s video were taken for each sample.
# [5] = Peptide self-aggregation by light scattering; type: physicochemical; conditions: 80 μM, 37° C., after 1 hr of incubation
# Experimental: To further probe for self-aggregation, G16, LG3, and CG3 were incubated at 80 μM at 37° C. and analyzed by light scattering.
# Aβ (1-40) [6] = biological target: T1, Aβ (1-40); assay: Proteolytic fragmentation assay of Aβ with peptides (Proteinase K); type: binding; conditions: 3:1 molar excess of peptides, detection by 4G8
# Experimental: as §1
# The proteolytic fragmentation assay of Aβ with peptides was performed as previously described in detail (Cho et al., 2014). Briefly, Aβ alone (20 μM) or with peptide (60 μM) was incubated for 24 hr at 37° C. Proteinase K (Promega, Madison, Wis.) was added to the samples at a final concentration of 0.5 μg/mL and samples were dotted onto a 0.45 μm nitrocellulose membrane (Pierce) after incubation for 0, 5, 10, 20, 30, 40, 50, 60, 90 and 120 min. Membranes were then reacted with monoclonal antibodies against Aβ (6E10, Covance, against Aβ (3-8) and 4G8 against Aβ (18-22)) and visualized.
# Aβ (1-40) [7] = biological target: T1, Aβ (1-40); assay: Photoinduced cross-linking (PICUP) of Aβ and peptides; type: binding
# Experimental: as §1
# Aβ prepared with HFIP/NaOH treatment at 30 μM as described was mixed with peptides to a final concentration of 24 μM Aβ and 2.4 μM peptides. Aβ stock was used immediately (freshly prepared) or after incubation for 24 hr at 37° C. (1 day pre-aggregated). Samples of Aβ with and without peptides were incubated for 1 hr at 37° C. and cross-linked by photo-induced cross-linking method as previously described (Cho et al., 2014). Cross-linked samples were then separated on a 10-20% Tris-Tricine gradient gel (Iinvotrogen, Carlsbad, Calif.), transferred onto a 0.2 μm poly(vinylidene difluoride) (PVDF) membrane and detected by monoclonal mouse anti-Aβ antibody 4G8 (Covance, Princeton, N.J.) as previously described (Cho et al., 2014).
# Aβ (1-40) [8] = biological target: T1, Aβ (1-40); assay: Transmission electron microscopy of Aβ aggregates; type: biochemical; conditions: 48 h at 37° C., 28 μM Aβ, 2.8 μM peptide
# Experimental: as §1
# Aβ alone (28 μM) or with peptides (G16 or CG3 at 2.8 μM) were prepared in PBSA and incubated for 48 hr at 37° C. A drop of sample was placed on a pioloform-coated grid and stained with methylamine tungstate stain. Images were taken with a Philips CM120 scanning transmission electron microscope (FEI Corp., Eindhoven, The Netherlands).
substance,measurement,setting,value
SKVVT^DPPRYTIAALLSPYSYSQ [CG3] (chain 1 SKVVT[dP]PRYTIAALLSPYSYSQ; chain 2 SKVVT[dP]PRYTIAALLSPYSYSQ; also: head-to-tail to a chain's N/C-terminus) [cyclic 22-mer of TTR residues 104-123 grafted onto DPro-Pro template],effect on fraction of Aβ aggregates removable by filtration or sedimentation,Aβ (1-40) [1],reduce the fraction of Aβ aggregates that can be removed by filtration or sedimentation
same,fraction of Aβ-peptide mixture filterable through 0.45 μm filter,"Aβ (1-40) [1]; 30 μM Aβ, 10:1 Aβ excess, at either 0 or 24 hours, 37° C.",about 90%
same,fraction of Aβ-peptide mixture remaining in solution after centrifugation,"Aβ (1-40) [1]; after 24 hours, centrifuged 30 min, supernatant",91%
same,protection against Aβ toxicity,[2],significant protection
same,ThT fluorescence intensity of Aβ with peptide,Aβ (1-40) [3]; after 5 hr,remained low
same,ThT fluorescence intensity of Aβ with peptide,Aβ (1-40) [3]; after 24 hr,fluorescence still remained low
same,size of particles detected,Aβ (1-40) [4],very large (microns)
same,light scattering of peptide alone,[5],scattered light above background
same,scattering intensity relative to G16,[5],about 5 times
same,effect on Aβ degradation by protease,Aβ (1-40) [6],Aβ degradation was delayed; also recorded: most effective in inhibiting degradation
same,interaction with freshly prepared versus pre-aggregated Aβ,Aβ (1-40) [7]; freshly prepared or 1 day pre-aggregated Aβ,much less interaction with freshly prepared Aβ than with pre-aggregated Aβ
same,interaction with Aβ (shift in cross-linked Aβ size distribution),"Aβ (1-40) [7]; pre-aggregated Aβ, 10:1 molar excess of Aβ, Western blot 4G8",interact with Aβ
same,morphology of Aβ aggregates by TEM,Aβ (1-40) [8],strikingly lower density of aggregates
